Twelve molecules from patent US20090130676A1 (GENERAL HOSPITAL, published 2009) can be followed below.

B1: peptide 13 (FIG. 3A/3B numbering), thioredoxin prey fusion (designed binder, not shown: large carriers; small tags and cut ends)
chain: MSDKIIHLTDDSFDTDVLKADGAILVDFWAEWCGPSVRMRYGIDAFFDLGGLLHGGPCKMIAPILDEIADEYQGKLTVAKLNIDQNPGTAPKYGIRGIPTLLLFKNGEVAATKVGALSKGQLKEFLDANLA
modifications: peptide loop embedded in the thioredoxin active-site loop between Cys33 and Cys36 (may form a disulfide)
B2: pep12 (FIG. 4B numbering), thioredoxin prey fusion (designed binder, not shown: large carriers)
chain: MSDKIIHLTDDSFDTDVLKADGAILVDFWAEWCGPRPLTGRWVVWGRRHEECGLTGPCKMIAPILDEIADEYQGKLTVAKLNIDQNPGTAPKYGIRGIPTLLLFKNGEVAATKVGALSKGQLKEFLDANLA
B3: pep9 (FIG. 4B numbering), thioredoxin prey fusion (designed binder, not shown: large carriers)
chain: MSDKIIHLTDDSFDTDVLKADGAILVDFWAEWCGPQQRFVFSPSWFTCAGTSDFWGPEPLFDWTRDGPCKMIAPILDEIADEYQGKLTVAKLNIDQNPGTAPKYGIRGIPTLLLFKNGEVAATKVGALSKGQLKEFLDANLA
B4: pep13 (FIG. 4B numbering), thioredoxin prey fusion (designed binder, not shown: large carriers)
chain: MSDKIIHLTDDSFDTDVLKADGAILVDFWAEWCGPPVCCMMYGHRTAPHSVFNVDGPCKMIAPILDEIADEYQGKLTVAKLNIDQNPGTAPKYGIRGIPTLLLFKNGEVAATKVGALSKGQLKEFLDANLA
B5: pep14 (FIG. 4B numbering), thioredoxin prey fusion (designed binder, not shown: large carriers)
chain: MSDKIIHLTDDSFDTDVLKADGAILVDFWAEWCGPWSPELLRAMVAFRWLLERRPGPCKMIAPILDEIADEYQGKLTVAKLNIDQNPGTAPKYGIRGIPTLLLFKNGEVAATKVGALSKGQLKEFLDANLA
B6: pep6 (FIG. 4B numbering), thioredoxin prey fusion (designed binder, not shown: large carriers)
chain: MSDKIIHLTDDSFDTDVLKADGAILVDFWAEWCGPRVKLGYSFWAQSLLRCISVGGPCKMIAPILDEIADEYQGKLTVAKLNIDQNPGTAPKYGIRGIPTLLLFKNGEVAATKVGALSKGQLKEFLDANLA
B7: pep7 (FIG. 4B numbering), thioredoxin prey fusion (designed binder, not shown: large carriers)
chain: MSDKIIHLTDDSFDTDVLKADGAILVDFWAEWCGPQLYAGCYLGVVIASSLSIRVGPCKMIAPILDEIADEYQGKLTVAKLNIDQNPGTAPKYGIRGIPTLLLFKNGEVAATKVGALSKGQLKEFLDANLA
B8: pep10 (designed binder, not shown: small tags and cut ends)
chain: MSDKIIHLTDDSFDTDVLKADGAILVDFWAEWCGPQVWSLWALGWRWLRRYGWNMGPCKMIAPILDEIADEYQGKLTVAKLNIDQNPGTAPKYGIRGIPTLLLFKNGEVAATKVGALSKGQLKEFLDANLA
modifications: Peptide loop sits in the TrxA active-site loop; flanking Cys33 and Cys36 may form a disulfide
notes: The purified His6 form is m44
B9: pep5 (designed binder, not shown: large carriers; small tags and cut ends)
chain: B1 chain
modifications: peptide loop embedded in the thioredoxin active-site loop between Cys33 and Cys36 (may form a disulfide)
notes: the purified His6 form is m42
B10: pep2 (designed binder, not shown: small tags and cut ends)
chain: MSDKIIHLTDDSFDTDVLKADGAILVDFWAEWCGPLVCKSYRLDWEAGALFRSLFGPCKMIAPILDEIADEYQGKLTVAKLNIDQNPGTAPKYGIRGIPTLLLFKNGEVAATKVGALSKGQLKEFLDANLA
modifications: Peptide loop sits in the TrxA active-site loop; flanking Cys33 and Cys36 may form a disulfide
notes: the purified His6 form is m40
B11: pep8 (designed binder, not shown: large carriers; small tags and cut ends)
chain: MSDKIIHLTDDSFDTDVLKADGAILVDFWAEWCGPYSFVHHGFFNFRVSWREMLAGPCKMIAPILDEIADEYQGKLTVAKLNIDQNPGTAPKYGIRGIPTLLLFKNGEVAATKVGALSKGQLKEFLDANLA
modifications: peptide loop embedded in the thioredoxin active-site loop between Cys33 and Cys36 (may form a disulfide)
notes: The purified His6 form is m43
B12: pep11 (designed binder, not shown: small tags and cut ends)
chain: MSDKIIHLTDDSFDTDVLKADGAILVDFWAEWCGPWRRMELDAEIRWVKPISPLEGPCKMIAPILDEIADEYQGKLTVAKLNIDQNPGTAPKYGIRGIPTLLLFKNGEVAATKVGALSKGQLKEFLDANLA
modifications: Peptide loop sits in the TrxA active-site loop; flanking Cys33 and Cys36 may form a disulfide
notes: The purified His6 form is m45

T6 sequence (P06493 whole entry): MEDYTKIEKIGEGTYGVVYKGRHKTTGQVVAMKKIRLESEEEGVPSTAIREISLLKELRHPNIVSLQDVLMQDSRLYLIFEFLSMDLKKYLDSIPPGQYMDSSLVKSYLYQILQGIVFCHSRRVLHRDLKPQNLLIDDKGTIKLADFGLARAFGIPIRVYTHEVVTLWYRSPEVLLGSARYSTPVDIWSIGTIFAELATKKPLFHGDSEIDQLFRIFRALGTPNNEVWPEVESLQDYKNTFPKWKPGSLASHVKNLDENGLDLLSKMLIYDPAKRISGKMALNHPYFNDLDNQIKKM

One test concerns the target human Cdk2 expressed from a plasmid in cdc28ts yeast (human, UniProt P24941 1-298). The test can be described thus: cell-based or functional assay.
Consider B1, for which the “fold decrease in plating efficiency of a Cdk2-dependent cdc28-1N yeast strain at the restrictive temperature” value worked out at 10 fold.

In the next test the target is T1, Cdk4 (Homo sapiens (Human), UniProt P11802 2-303).
T1 construct: construct not described
T1 sequence (P11802 2-303 limits assumed): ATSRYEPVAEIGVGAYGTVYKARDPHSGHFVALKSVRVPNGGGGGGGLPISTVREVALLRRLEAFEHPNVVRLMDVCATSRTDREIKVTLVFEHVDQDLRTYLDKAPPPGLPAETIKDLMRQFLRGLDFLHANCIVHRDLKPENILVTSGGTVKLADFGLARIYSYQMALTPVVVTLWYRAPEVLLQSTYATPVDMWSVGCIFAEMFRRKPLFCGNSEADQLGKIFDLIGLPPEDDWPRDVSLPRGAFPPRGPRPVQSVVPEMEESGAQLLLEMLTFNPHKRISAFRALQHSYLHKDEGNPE
The test can be described thus: yeast interaction trap mating assay (FIG. 4A).
On to B2, for which the binding result is on record as “no binding”.
On the same count and under the same terms, as for B3, the entry is “no binding”; as for B4, “no binding”.
Regarding B5, the binding result is “no binding”.
The same measure, in the same setting: the entry for B6 is “no binding”; for B7 it is “no binding”.

The next test concerns the target T2, Cdk6.
T2 construct: Bait strain named only on the sheet
Kind of test: yeast interaction trap mating assay, lacZ reporter on Xgal.
Take B8: the binding result is listed as “no binding”.
Regarding B9, the binding result is given as “no binding”.
As to B10, the binding result is listed as “no binding”.
Still for that read-out and setting: the entry for B11 is “no binding”; for B12 it is “no binding”.

The next test deals with T3, Cdk7.
T3 construct: Bait strain named only on the sheet
T3 chain: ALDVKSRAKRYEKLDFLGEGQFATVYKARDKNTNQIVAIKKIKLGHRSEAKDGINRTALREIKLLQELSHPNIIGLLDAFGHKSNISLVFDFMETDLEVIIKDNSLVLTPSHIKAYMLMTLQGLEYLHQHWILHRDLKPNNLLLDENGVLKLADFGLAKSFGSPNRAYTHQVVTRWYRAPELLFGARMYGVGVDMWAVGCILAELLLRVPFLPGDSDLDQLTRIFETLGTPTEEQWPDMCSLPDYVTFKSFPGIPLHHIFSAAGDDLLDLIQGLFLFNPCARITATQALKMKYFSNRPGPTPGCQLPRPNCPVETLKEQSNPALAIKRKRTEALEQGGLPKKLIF
The description is as above.
B8: the binding result is given as “no binding”.
Same read-out and setting: as for B9, the entry is “no binding”; as for B10, “no binding”; as for B11, “no binding”.
The same measure, in the same setting: as for B12, the entry is “no binding”.

In a further test the target is T4, LexA-Cdk3 bait (human, UniProt Q00526 1-305, limits assumed).
T4 construct: also called human Cdk3; not shown: bacterial LexA protein
T4 sequence (Q00526 whole entry): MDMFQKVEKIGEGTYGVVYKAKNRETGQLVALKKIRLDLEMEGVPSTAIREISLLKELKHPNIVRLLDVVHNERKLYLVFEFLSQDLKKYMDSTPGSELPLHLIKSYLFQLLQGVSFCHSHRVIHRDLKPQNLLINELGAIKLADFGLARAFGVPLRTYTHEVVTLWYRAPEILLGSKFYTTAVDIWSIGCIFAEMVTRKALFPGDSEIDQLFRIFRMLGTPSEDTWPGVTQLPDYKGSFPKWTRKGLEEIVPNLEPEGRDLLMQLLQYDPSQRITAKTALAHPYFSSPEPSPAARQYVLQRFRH
Described as above.
With B2, the binding result is recorded as “no binding”.
The same measure, in the same setting: the entry for B3 is “no binding”; for B8 it is “no binding”.
Still for that read-out and setting: as for B9, the entry is “binds”; as for B4, “no binding”.
Take B5: the binding result was “no binding”.
The same measure, in the same setting: as for B6, the entry is “no binding”.
Still for that read-out and setting: the entry for B10 is “no binding”.
The same measure, in the same setting: as for B11, the entry is “no binding”; as for B7, “no binding”.
In the case of B12, the binding result was “no binding”.

The target of a further test is T5, CDC28 (Saccharomyces cerevisiae (strain ATCC …, UniProt P00546 1-298)).
T5 construct: bait construct not described
T5 sequence (P00546 whole entry): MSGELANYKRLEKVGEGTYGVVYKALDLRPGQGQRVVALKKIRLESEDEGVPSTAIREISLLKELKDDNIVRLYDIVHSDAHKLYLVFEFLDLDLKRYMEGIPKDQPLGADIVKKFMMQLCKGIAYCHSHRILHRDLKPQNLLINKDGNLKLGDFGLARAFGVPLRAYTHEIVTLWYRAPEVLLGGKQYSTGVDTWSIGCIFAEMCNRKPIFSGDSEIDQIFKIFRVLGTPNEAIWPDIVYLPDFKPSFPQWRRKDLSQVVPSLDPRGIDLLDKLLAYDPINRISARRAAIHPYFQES
The description is as above.
Turning to B2, the binding result is “no binding”.
Still for that read-out and setting: the entry for B3 is “no binding”.
Same read-out and setting: as for B8, the entry is “no binding”.
On the same count and under the same terms, the entry for B9 is “no binding”; for B4 it is “no binding”; for B5 it is “no binding”.
Consider B6, for which the binding result is “no binding”.
Same read-out and setting: as for B10, the entry is “no binding”; as for B11, “no binding”.
As for B7, the binding result is recorded as “no binding”.
On the same count and under the same terms, the entry for B12 is “no binding”.

A further test concerns the target T6, Cdc2 (Homo sapiens (Human), UniProt P06493 1-297).
T6 construct: bait construct and species not described
Described as above.
Consider B2, for which the binding result is given as “no binding”.
The same measure, in the same setting: as for B3, the entry is “no binding”; as for B8, “no binding”; as for B9, “no binding”.
For the molecule B4, the binding result is listed as “no binding”.
On the same count and under the same terms, the entry for B5 is “no binding”.
The same measure, in the same setting: as for B6, the entry is “no binding”; as for B10, “no binding”; as for B11, “no binding”.
With B7, the binding result was “no binding”.
The same measure, in the same setting: as for B12, the entry is “no binding”.

The target of a further test is T7, Drosophila Cdc2c (Drosophila, UniProt P23573 1-314, limits assumed).
T7 construct: bait construct not described
T7 sequence (P23573 whole entry): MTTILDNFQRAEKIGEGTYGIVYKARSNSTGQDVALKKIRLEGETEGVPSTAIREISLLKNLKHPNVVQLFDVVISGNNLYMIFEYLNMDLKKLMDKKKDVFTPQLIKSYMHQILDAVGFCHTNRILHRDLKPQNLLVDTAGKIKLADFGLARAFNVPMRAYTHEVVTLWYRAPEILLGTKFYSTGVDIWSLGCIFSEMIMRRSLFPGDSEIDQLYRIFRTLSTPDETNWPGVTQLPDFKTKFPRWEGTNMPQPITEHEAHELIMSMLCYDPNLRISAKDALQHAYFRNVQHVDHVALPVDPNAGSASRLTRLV
The test is described as above.
For B2, the binding result is listed as “no binding”.
On to B3, for which the binding result was “no binding”.
The same measure, in the same setting: as for B8, the entry is “no binding”; as for B9, “no binding”; as for B4, “no binding”.
B5: the binding result is recorded as “no binding”.
On the same count and under the same terms, the entry for B6 is “no binding”.
Still for that read-out and setting: the entry for B10 is “no binding”; for B11 it is “no binding”; for B7 it is “no binding”.
Consider B12, for which the binding result is given as “no binding”.

The target of a further test is T1, Cdk4. The description is as above.
Turning to B8, the binding result is reported as “no binding”.
Same read-out and setting: the entry for B9 is “no binding”; for B10 it is “no binding”.
Same read-out and setting: the entry for B11 is “no binding”; for B12 it is “no binding”.
